Test results from publication PMC10917881, “Biochemical characterization of L-asparaginase isoforms from Rhizobium etli—the boosting effect of zinc” (Frontiers in Chemistry, 2024).

Assays:
[1] = substrate: C=CC(N)=O; assay: ITC, Michaelis-Menten fit; format: biochemical, Rhizobium etli; conditions: possible substrate only: heat signal, product not confirmed by Nessler, protein adduct not excluded; fit before product inhibition / inactivation
Source text: ITC, Michaelis-Menten fit on ReAIV | after acrylamide injection into the reaction cell containing ReAIV, but not ReAV

[2] = substrate: NC(=O)C[C@H](N)C(=O)O; assay: ITC multiple injection method (heat-rate); format: biochemical, Rhizobium etli; conditions: 10 mM Tris-HCl pH 9.0, 37°C, with optimal 1 µM Zn2+ (metal cofactor)
Source text: ITC multiple injection method (heat-rate) on ReAIV

purified protein = substrate: NC(=O)C[C@H](N)C(=O)O; assay: purified protein; conditions: 10 mM Tris-HCl pH 9.0, 37°C, with optimal Zn2+ (metal cofactor)
[3] = substrate: NC(=O)C[C@H](N)C(=O)O; assay: ITC multiple injection method (heat-rate); format: biochemical, Rhizobium etli; conditions: Tris-HCl pH 9.0, 37°C
Source text: ITC multiple injection method (heat-rate) on ReAV

[4] = with optimal 2.5 µM Zn2+ (metal cofactor)

B1: ReAIV (Rhizobium etli CFN 42) (protein)
chain: MTNPVTVEVTRGLLVESRHRGAVAVVDGDGKLFFSLGDIDTAVFPRSACKAMQALPLVESGAADAYGFGDKELALACASHNGEEEHVALAASMLSRAGRNVEALECGAHWSMNQKVLIQQARSLDAPTALHNNCSGKHAGFICACCHRDIDPKGYVGYEHPLQVEIRAVMERLTGAVLGAESCGTDGCSIPTYAMPLRNLAHGFARMATGTGLEPLRAKASRRLIEACMAEPFYVAGSGRACTKLMQIAPGRIFVKTGAEGVFCAAIPEKGIGISLKSEDGATRAAEAMVAATLARFFETEETVHAALMAFAAMPMRNWNGIHVGDIRATSVFSA
notes: full length, 335 residues; N-terminal 6xHis tag cut off by TEV (pET151D); E. coli BL21 Gold (DE3); homodimer
B1 showed a Km [1] of 5500 µM, a kcat [1] of 12.6 s⁻¹ and a Km [2] of 1500 ± 100 µM. For the same protein, the kcat [2] was 770 ± 17 s⁻¹ and the kcat/Km [2] was 526000 ± 34000 M⁻¹ s⁻¹.

B2: ReAIV (Rhizobium etli CFN 42; K137A) (protein)
chain: MTNPVTVEVTRGLLVESRHRGAVAVVDGDGKLFFSLGDIDTAVFPRSACKAMQALPLVESGAADAYGFGDKELALACASHNGEEEHVALAASMLSRAGRNVEALECGAHWSMNQKVLIQQARSLDAPTALHNNCSGAHAGFICACCHRDIDPKGYVGYEHPLQVEIRAVMERLTGAVLGAESCGTDGCSIPTYAMPLRNLAHGFARMATGTGLEPLRAKASRRLIEACMAEPFYVAGSGRACTKLMQIAPGRIFVKTGAEGVFCAAIPEKGIGISLKSEDGATRAAEAMVAATLARFFETEETVHAALMAFAAMPMRNWNGIHVGDIRATSVFSA
B2 showed a Km (purified protein) of 2300 ± 100 µM, a kcat (purified protein) of 158 s⁻¹ and a kcat/Km (purified protein) of 70000 M⁻¹ s⁻¹.

B3: ReAV (Rhizobium etli CFN 42) (protein)
chain: MTPSEDFVVTDRGGIVENSHRVHAAVVDAKGRLLYALGNPTRMTLARSAAKPAQALAILETEGVAGYGFDDADIALMCASHSSEDRHIARTRAMLSKIKAEEADLRCGGHPSLSEMVNRSWIKQDFIPTAVCSNCSGKHVGMLAGARAIGAGTDGYHLPDHPMQGRVKRTVAELCDLDAGDVEWGTDGCNLPTPAFPLDRLGRIYAKLASAADGSDAGEGQSTRCAALAHIFRAMARHPEMVAGEGRYCTMLMRAFDGALVGKLGADASYAIGVRASDATRQLGTDGALGISVKIEDGNLEMLYAVVTELLERLGIGSPDVRSQLASFHHPQRVNTMGVTTGGVSFPFKLRGSKSNVDDPRLAAVAR
notes: full length, 367 residues; N-terminal 6xHis tag cut off by TEV (pET151D); E. coli BL21 Gold (DE3); homodimer
Work on B3 yielded a Km [3, 4] of 2100 ± 200 µM, a kcat [3, 4] of 603 ± 24 s⁻¹ and a kcat/Km [3, 4] of 294000 ± 31000 M⁻¹ s⁻¹.

B4: ReAV (Rhizobium etli CFN 42; K138A) (protein)
chain: MTPSEDFVVTDRGGIVENSHRVHAAVVDAKGRLLYALGNPTRMTLARSAAKPAQALAILETEGVAGYGFDDADIALMCASHSSEDRHIARTRAMLSKIKAEEADLRCGGHPSLSEMVNRSWIKQDFIPTAVCSNCSGAHVGMLAGARAIGAGTDGYHLPDHPMQGRVKRTVAELCDLDAGDVEWGTDGCNLPTPAFPLDRLGRIYAKLASAADGSDAGEGQSTRCAALAHIFRAMARHPEMVAGEGRYCTMLMRAFDGALVGKLGADASYAIGVRASDATRQLGTDGALGISVKIEDGNLEMLYAVVTELLERLGIGSPDVRSQLASFHHPQRVNTMGVTTGGVSFPFKLRGSKSNVDDPRLAAVAR
notes: as for B3
Work on B4 yielded a Km ([3]; with optimal Zn2+ (metal cofactor)) of 500 ± 100 µM.
